Experimental data taken from US20210403601A1 (FAPON BIOTECH, published 2021).
Numbering of substitutions follows the chain as printed. Read-outs that look alike come from different tables or passages of the source.

B1: Anti-Taq 2C7 recombinant antibody (WT) (antibody, mouse IgG1, kappa, V domains shown)
VH: QVQLQQPGAELVKPGASVRLSCQTSVDTFSTYYLYWVKQRPGEGLEWIGGVNPTSNPVFDEKFKSKATLTVDTSSSTAYMQLSSLTSVDSAVYYCTRSILRRGYYPDYWGQGTALTVSS
VL: DIQMTQTTSSLSASLGDRVTISCRGSQDIQNYVNWYQQKPDGTIKLLIYFTSRLQSGIPSRFSGSGSGTDYSLTIANLEQEDIATYFCQQDDTIPVTWGAGTKVELKR
notes: Mouse antibody expressed in CHO cells; also called WT antibody; antibody of sample 1
B2: Mutation 1 (antibody, V domains shown)
VH: B1 VH with L34I, D60N, P106F
VL: B1 VL with G25A, F50Y, W98F
notes: also called mutation 1 antibody
B3: Mutation 2 (antibody, V domains shown)
VH: B1 VH with L34I, D60N
VL: B1 VL with W98F

Columns and labels:
Taq DNA polymerase [1] = target: T1, Taq DNA polymerase (Thermus aquaticus, UniProt P19821 1-832); assay: ELISA on coated Taq, antibody 4.12 ng/ml
T1 construct: also called Taq enzyme; Taq DNA enzyme
T1 sequence (P19821 whole entry): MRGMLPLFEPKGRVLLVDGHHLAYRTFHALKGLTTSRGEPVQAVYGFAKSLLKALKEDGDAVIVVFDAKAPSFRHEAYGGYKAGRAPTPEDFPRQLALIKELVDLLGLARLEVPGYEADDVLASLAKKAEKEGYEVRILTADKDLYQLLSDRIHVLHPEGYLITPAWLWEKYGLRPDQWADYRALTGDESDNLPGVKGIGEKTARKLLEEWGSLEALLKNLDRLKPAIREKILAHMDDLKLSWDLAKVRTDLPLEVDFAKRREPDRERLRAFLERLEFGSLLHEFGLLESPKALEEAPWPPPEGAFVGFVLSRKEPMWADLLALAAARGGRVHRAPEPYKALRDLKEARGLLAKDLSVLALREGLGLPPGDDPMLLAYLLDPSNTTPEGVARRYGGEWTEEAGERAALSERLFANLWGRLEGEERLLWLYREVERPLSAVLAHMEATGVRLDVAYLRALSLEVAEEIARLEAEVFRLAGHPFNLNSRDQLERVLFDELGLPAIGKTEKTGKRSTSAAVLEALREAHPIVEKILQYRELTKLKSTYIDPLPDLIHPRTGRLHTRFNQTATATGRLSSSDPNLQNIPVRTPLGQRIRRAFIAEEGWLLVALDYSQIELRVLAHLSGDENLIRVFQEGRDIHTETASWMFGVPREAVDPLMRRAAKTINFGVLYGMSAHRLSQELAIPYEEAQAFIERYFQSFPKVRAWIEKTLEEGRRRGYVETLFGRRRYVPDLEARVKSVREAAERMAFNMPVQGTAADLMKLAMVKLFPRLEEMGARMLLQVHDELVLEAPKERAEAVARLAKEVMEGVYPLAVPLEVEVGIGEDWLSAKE
Procedure: (§1) The antibody activity was detected after mutation. Taq DNA enzyme was diluted with coating solution to the specified concentration, 100 μL per well overnight at 4° C.; which was washed twice with washing solution and patted dry on the next day; with addition of blocking solution (20% BSA+80% PBS), 120 μL per well at 37° C. for 1 h and patted dry; added the diluted Taq monoclonal antibodies, 100 μL/well at 37° C. for 30 min (partial supernatant for 1 h); washed 5 times with washing solution and patted dry; added goat anti-mouse IgG-HRP at 100 μL per well at 37° C. for 30 min; washed 5 times with washing solution and patted dry; added color developing solution A (50 μL/well), added color developing solution B (50 μL/well) for 10 min; added stop solution, 50 μL/well; followed by reading the OD value at 450 nm (reference 630 nm) on the microplate reader.

Taq DNA polymerase [2] = target: T1, Taq DNA polymerase; assay: ELISA on coated Taq, antibody 0 ng/ml (blank)
Procedure: as §1

Taq DNA polymerase [3] = target: T1, Taq DNA polymerase; assay: ELISA on coated Taq, antibody 1.37 ng/ml
Procedure: as §1

Taq DNA polymerase [4] = target: T1, Taq DNA polymerase; assay: ELISA on coated Taq, antibody 0.46 ng/ml
Procedure: as §1

Taq DNA polymerase [5] = target: T1, Taq DNA polymerase; assay: AMC sensor, antibody immobilised
Taq DNA polymerase [6] = target: T1, Taq DNA polymerase; assay: ELISA on coated Taq, antibody 12.35 ng/ml
Procedure: as §1

Taq DNA polymerase [7] = target: T1, Taq DNA polymerase; assay: AMC sensor, antibody immobilised; remark: listed apart in the source
Taq DNA polymerase [8] = target: T1, Taq DNA polymerase; assay: ELISA on coated Taq, antibody 37.04 ng/ml
Procedure: as §1

Taq DNA polymerase [9] = target: T1, Taq DNA polymerase; assay: AMC sensor, antibody immobilised; remark: listed apart in the source

Row | Binder | OD 450 nm (Taq DNA polymerase [1]) [OD] | OD 450 nm (Taq DNA polymerase [2]) [OD] | OD 450 nm (Taq DNA polymerase [3]) [OD] | OD 450 nm (Taq DNA polymerase [4]) [OD] | Kd (Taq DNA polymerase [5]) [nM] | koff (Taq DNA polymerase [5]) [s⁻¹] | kon (Taq DNA polymerase [5]) [M⁻¹ s⁻¹] | OD 450 nm (Taq DNA polymerase [6]) [OD] | Kd (Taq DNA polymerase [7]) [nM] | koff (Taq DNA polymerase [7]) [s⁻¹] | kon (Taq DNA polymerase [7]) [M⁻¹ s⁻¹] | OD 450 nm (Taq DNA polymerase [8]) [OD] | Kd (Taq DNA polymerase [9]) [nM] | koff (Taq DNA polymerase [9]) [s⁻¹] | kon (Taq DNA polymerase [9]) [M⁻¹ s⁻¹]
1 | B1 | 1.58 | 0.035 | 0.798 | 0.399 | 2.46 | 0.000145 | 59000 | 2.1 | 2.46 | 0.000145 | 59000 | 2.3 |  |  | 
2 | B2 | 1.7 | 0.047 | 0.887 | 0.442 | 0.384 | 3.78e-05 | 98300 | 2.14 |  |  |  | 2.38 | 0.384 | 3.78e-05 | 98300
3 | B3 | 1 | 0.05 | 0.514 | 0.059 | 0.99 | 5.87e-05 | 59200 | 1.84 |  |  |  | 2.05 |  |  | 
